Experimental data taken from US20070004636A1, “Method of degrading transcriptional factors of saccharometabolism-associated gene, method for inhibiting the degradation, and agent for inhibiting degradation and degradation inhibitor” (priority 2002, published 2007).

Legend:
Assay type in all cases: biochemical
Details in all cases: 1 hour at 37° C.
[1] = tested on: human HNF-1α; assay: in vitro protein degradation test of HNF-1α by calpain (Western blotting)
Protocol: Using the HNF-1α expression plasmid, in vitro synthesis of HNF-1α protein was carried out using the TNT T7 Quick Coupled Transcription/Translation System. That is, the HNF-1α expression plasmid was mixed with TNT T7 Quick Master Mix, and then incubated for 1.5 hours at 30° C. in the presence of methionine to synthesize HNF-1α. Thereafter, immunoprecipitation was conducted by adding anti-Xpress antibody to the synthesized HNF-1α, mixing by inversion for 1 hour at 4° C., and then adding Protein G Sepharose 4 Fast Flow and mixing by inversion for an additional 1 hour at 4° C. Subsequently, Protein G Sepharose was collected by centrifugation and washed 3 times with washing buffer (50 mM Tris-HCl, pH 7.5/150 mM NaCl/0.2% Nonidet P-40), followed by rinsing with 200 mM Tris-HCl (pH 7.8) to obtain the HNF-1α sample as 20% slurry (hereunder, referred to as “HNF-1α slurry”).
Protein degradation tests were carried out in vitro by adding μ-calpain or m-calpain to the HNF-1α slurry, and incubating for 1 hour at 37° C. in the presence of 200 mM Tris-HCl (pH 7.8)/1 mM DTT/6 mM CaCl2. The final concentrations of the respective calpain in the reaction system were as follows: 50 units/mL of human μ-calpain; 50 μg/mL of rabbit m-calpain as a protein concentration; and 59 units/mL of rat m-calpain. For a control experiment, an HNF-1α slurry was incubated without the addition of calpain in a similar manner in the presence of calcium. Further, to test for protein degradation in the absence of calcium, a sample was prepared by adding 10 mM of EDTA instead of 6 mM of CaCl2 and was incubated in the same manner. The samples after incubation were added to an equal volume of 2×SDS sample buffer, heated for 5 minutes, and then subjected to 5-20% SDS-PAGE for separation. Thereafter, Western blotting was carried out to detect HNF-1α using anti-Omni/M21 antibody (Santa Cruz Biotechnology, Inc.), which recognizes a His-Xpress region, and anti-HNF-1α antibody/HNF-1α (C-19) antibody (Santa Cruz Biotechnology, Inc.). An ECL Western blotting detection kit was used for conducting the detection.
In-vitro protein degradation tests were carried out in the same manner as in Example 7, but the lysate of sf-9 cells that coexpressed m-calpain with calpain small subunit 1 was used as m-calpain. The final concentration of the lysate of the sf-9 cells that expressed these proteins in the reaction system was 1.75 mg/mL as a protein concentration. The final concentration of rat m-calpain in the reaction system was 59 units/mL. Detection of HNF-1α was performed in the same manner as Example 7, but only anti-HNF-1α antibody/HNF-1α (C-19) antibody was used.

[2] = tested on: human IPF-1; assay: in vitro protein degradation test of IPF-1 by calpain (Western blotting)
Protocol: (§1) Using the IPF-1 expression plasmid, synthesis of IPF-1 protein was carried out in vitro using the TNT T7 Quick Coupled Transcription/Translation System. That is, the IPF-1 expression plasmid was mixed with TNT T7 Quick Master Mix, and then incubated for 1.5 hours at 30° C. in the presence of methionine to synthesize IPF-1.
Protein degradation tests were carried out in vitro by adding μ-calpain or m-calpain to IPF-1, and incubating for 1 hour at 37° C. in the presence of 200 mM Tris-HCl (pH 7.8)/1 mM DTT/6 mM CaCl2. The final concentrations of each calpain in the reaction systems were as follows: 50 units/mL of human μ-calpain; 50 μg/mL of rabbit m-calpain as a protein concentration, and 59 units/mL of rat m-calpain. For a control experiment, IPF-1 was incubated without addition of calpain in the same manner in the presence of calcium. Further, to test for protein degradation in the absence of calcium, a sample was prepared by adding 10 mM of EDTA instead of 6 mM of CaCl2, and incubated in the same manner. The samples after incubation were added to an equal volume of 2×SDS sample buffer, heated for 5 minutes, and subjected to 5-20% SDS-PAGE for separation. Thereafter, Western blotting was carried out to detect IPF-1 using anti-Xpress antibody and anti-IPF1 (PDX-1) antibody/N-18 (Santa Cruz Biotechnology, Inc.). The ECL Western blotting detection kit was used for conducting the detection.
In-vitro protein degradation tests were carried out in the same manner as Example 10, but the lysate of sf-9 cells that coexpressed m-calpain with calpain small subunit 1 was used as m-calpain. The final concentration of the lysate of sf-9 cells that expressed these proteins in the reaction system was 2.33 mg/mL as a protein concentration. The final concentration of rat m-calpain in the reaction system was 59 units/mL. Detection of IPF-1 was performed in the same manner as Example 10, but only anti-IPF-1 antibody/N-18 was used.

[3] = tested on: human HNF-4α; assay: in vitro protein degradation test of HNF-4α by calpain (Western blotting)
Protocol: as §1, with “HNF-4α” for “IPF-1”, “plasmid, in vitro” for “plasmid,”, “conducted” for “carried out in vitro”, “System (Promega, Inc.).” for “System.”, “HNF-4α.” for “IPF-1.”
The in vitro protein degradation test was carried out by adding m-calpain extracted from rabbit muscle (Protease, Calcium-Activated Neutral (calpain), Sigma Chemical Co.) at a final concentration of 50 μg/mL to the synthesized HNF-4α, and then incubating for 1 hour at 37° C. in the presence of 200 mM Tris-HCl (pH 7.8)/1 mM dithiothreitol (DTT)/6 mM CaCl2. To conduct a degradation test in the absence of calcium, a test sample was prepared by adding 10 mM ethylenediaminetetraacetic acid (EDTA) instead of 6 mM CaCl2, and the sample was then incubated in a similar manner. The samples after incubation were added to an equal volume of 2× sodium dodecyl sulfate (SDS) sample buffer (4% SDS/125 mM Tris-HCl, pH 6.8/20% glycerol/0.01% bromphenol blue (BPB)/10% β-mercaptoethanol), heated for 5 minutes, and subjected to 10% SDS-PAGE for separation. Thereafter, Western blotting was carried out to detect HNF-4α using anti-HNF-4α antibody/HNF-4α (C-19) antibody (Santa Cruz Biotechnology, Inc.) and anti-Xpress antibody (Invitrogen, Inc.). An ECL Western blotting detection kit (Amersham pharmacia biotech) was used for the detection.
The final concentration of human m-calpain in the reaction system was 2.33 mg/mL as the protein concentration of the lysate of sf-9 cells that expressed human m-calpain. The final concentration of rat m-calpain in the reaction system was 59 units/mL. A degradation test was also conducted in the same manner without addition of calpain. Further, to test for degradation in the absence of calcium, a sample was prepared by adding 10 mM of EDTA instead of 6 mM CaCl2, and a degradation test was conducted with the sample in a similar manner. The samples after incubation were added to an equal volume of 2×SDS sample buffer, heated for 5 minutes, and subjected to 5-20% SDS-PAGE for separation. Thereafter, Western blotting was carried out to detect HNF-4α using anti-HNF-4α antibody/HNF-4α (C-19) antibody. An ECL Western blotting detection kit was used for the detection.
An in vitro protein degradation test was carried out by adding μ-calpain to HNF-4α at a final concentration of 50 units/mL, and incubating for 1 hour at 37° C. in the presence of 200 mM Tris-HCl (pH 7.8)/1 mM DTT/6 mM CaCl2. […]

[4] = in the absence of calcium (10 mM EDTA instead of CaCl2)
[5] = in the presence of calcium (6 mM CaCl2), Western blotting

B1: rat m-calpain: rat m-calpain (Calpain 2, rat recombinant, E. coli, Calbiochem, Inc.), positive control (protein)
chain: MAGIAMKLAKDREAAEGLGSHERAIKYLNQDYETLRNECLEAGALFQDPSFPALPSSLGFKELGPYSSKTRGIEWKRPTEICADPQFIIGGATRTDICQGALGDCWLLAAIASLTLNEEILARVVPLDQSFQENYAGIFHFQFWQYGEWVEVVVDDRLPTKDGELLFVHSAEGSEFWSALLEKAYAKINGCYEALSGGATTEGFEDFTGGIAEWYELRKPPPNLFKIIQKALEKGSLLGCSIDITSAADSEAVTYQKLVKGHAYSVTGAEEVESSGSLQKLIRIRNPWGQVEWTGKWNDNCPSWNTVDPEVRANLTERQEDGEFWMSFSDFLRHYSRLEICNLTPDTLTCDSYKKWKLTKMDGNWRRGSTAGGCRNYPNTFWMNPQYLIKLEEEDEDDEDGERGCTFLVGLIQKHRRRQRKMGEDMHTIGFGIYEVPEELTGQTNIHLSKNFFLTTRARERSDTFINLREVLNRFKLPPGEYVLVPSTFEPHKNGDFCIRVFSEKKADYQTVDDEIEANIEEIEANEEDIGDGFRRLFAQLAGEDAEISAFELQTILRRVLAKREDIKSDGFSIETCKIMVDMLDEDGSGKLGLKEFYILWTKIQKYQKIYREIDVDRSGTMNSYEMRKALEEAGFKLPCQLHQVIVARFADDELIIDFDNFVRCLVRLEILFKIFKQLDPENTGTIQLDLISWLSFSVL
degradation of HNF-1α [1, 4]: not degraded | degradation of HNF-1α [1, 5]: observed | degradation of IPF-1 [2, 4]: not degraded | degradation of IPF-1 [2, 5]: observed

B2: human μ-calpain: μ-Calpain extracted from human erythrocytes (Calpain 1, human erythrocytes; Calbiochem, Inc.) (protein, UniProt P07384 2-714; P04632 1-268, looked up)
Calpain-1 catalytic subunit: SEEIITPVYCTGVSAQVQKQRARELGLGRHENAIKYLGQDYEQLRVRCLQSGTLFRDEAFPPVPQSLGYKDLGPNSSKTYGIKWKRPTELLSNPQFIVDGATRTDICQGALGDCWLLAAIASLTLNDTLLHRVVPHGQSFQNGYAGIFHFQLWQFGEWVDVVVDDLLPIKDGKLVFVHSAEGNEFWSALLEKAYAKVNGSYEALSGGSTSEGFEDFTGGVTEWYELRKAPSDLYQIILKALERGSLLGCSIDISSVLDMEAITFKKLVKGHAYSVTGAKQVNYRGQVVSLIRMRNPWGEVEWTGAWSDSSSEWNNVDPYERDQLRVKMEDGEFWMSFRDFMREFTRLEICNLTPDALKSRTIRKWNTTLYEGTWRRGSTAGGCRNYPATFWVNPQFKIRLDETDDPDDYGDRESGCSFVLALMQKHRRRERRFGRDMETIGFAVYEVPPELVGQPAVHLKRDFFLANASRARSEQFINLREVSTRFRLPPGEYVVVPSTFEPNKEGDFVLRFFSEKSAGTVELDDQIQANLPDEQVLSEEEIDENFKALFRQLAGEDMEISVKELRTILNRIISKHKDLRTKGFSLESCRSMVNLMDRDGNGKLGLVEFNILWNRIRNYLSIFRKFDLDKSGSMSAYEMRMAIESAGFKLNKKLYELIITRYSEPDLAVDFDNFVCCLVRLETMFRFFKTLDTDLDGVVTFDLFKWLQLTMFA
Calpain small subunit 1: MFLVNSFLKGGGGGGGGGGGLGGGLGNVLGGLISGAGGGGGGGGGGGGGGGGGGGGTAMRILGGVISAISEAAAQYNPEPPPPRTHYSNIEANESEEVRQFRRLFAQLAGDDMEVSATELMNILNKVVTRHPDLKTDGFGIDTCRSMVAVMDSDTTGKLGFEEFKYLWNNIKRWQAIYKQFDTDRSGTICSSELPGAFEAAGFHLNEHLYNMIIRRYSDESGNMDFDNFISCLVRLDAMFRAFKSLDKDGTGQIQVNIQEWLQLTMYS
degradation of HNF-4α [3, 4]: not observed | degradation of HNF-4α [3, 5]: observed | degradation of HNF-1α [1, 4]: not degraded | degradation of HNF-1α [1, 5]: observed | degradation of IPF-1 [2, 4]: not degraded | degradation of IPF-1 [2, 5]: observed
